Data published in publication PMC7307101.

What was measured:
[1] = target: trimeric influenza virus polymerase of A/England/195/2009(pH1N1) (PB2, PB1-Gluc1, PA); test: split-luciferase assay; conditions: parent: est. 1.5; read off a plot
[2] = target: trimeric influenza virus polymerase of A/turkey/England/50-92/1991(H5N1) (PB2, PB1-Gluc1, PA); test: split-luciferase assay; conditions: parent: est. 30; read off a plot

human ANP32A-Gluc2 (from UniProt P39687) I106V; P156S
response [1]: 3.5 NLR
response [2]: 55 NLR
